6 molecules from PMC7536876 (bioRxiv, 2020) can be followed below.

Common to all, as to assay: native MS
Data set [1] addresses HCoV-229E nsp7–8-His6 precursor (HCoV-229E) (UniProt P0C6X1).
The target of data set [2] is PEDV nsp7–8-His6 precursor (PEDV (strain CV777)) (UniProt P0C6Y4).
Data set [3] concerns the target SARS-CoV nsp7–8-His6 precursor (SARS-CoV (strain Frankfurt-1)) (UniProt P0C6X7).
Data set [4] concerns the molecule itself.

In the case of “HCoV-229E nsp7–8-His6 precursor (from UniProt P0C6X1) (domain or fragment)”, the stoichiometry N – broadly, a count of units in the complex or per binding partner – in data set [1] was 2. As for “PEDV nsp7–8-His6 precursor (from UniProt P0C6Y4) (domain or fragment)”, the stoichiometry N in data set [2] stood at 2.

“SARS-CoV nsp7–8-His6 precursor (from UniProt P0C6X7) (domain or fragment)” gave a stoichiometry N in data set [3] of 2.

B1: MERS-CoV nsp7 (natural protein)
chain: SKLTDLKCTSVVLLSVLQQLHLEANSRAWAFCVKCHNDILAATDPSEAFEKFVSLFATLMTFSGNVDLDALASDIFDTPSVLQ
For the molecule B1, the “stoichiometry N” value in data set [4] was found to be 2.

B2: PEDV nsp7 (natural protein)
chain: SKLTDIKCSNVVLLGCLSSMNVSANSTEWAYCVDLHNKINLCNDPEKAQEMLLALLAFFLSKNSAFGLDDLLESYFNDNSMLQ
On to B2, for which the “stoichiometry N” value in data set [4] stood at 2.

B3: FIPV nsp7 (natural protein)
chain: SKLTEMKCTNVVLLGLLSKMHVESNSKEWNYCVGLHNEINLCDDPDAVLEKLLALIAFFLSKHNTCDLSDLIESYFENTTILQ
For B3, the “stoichiometry N” value in data set [4] is 2.
